Drawing on PMC2192206, this text covers KD of the high affinity component for one substance.

This assay has as its target lymphocyte function associated-1 (LFA-1, CD11a/CD18) (UniProt P20701). Briefly: radioligand binding.

Sequence of lymphocyte function associated-1 (LFA-1, CD11a/CD18) (P20701 26-1170, chain 1 of 2): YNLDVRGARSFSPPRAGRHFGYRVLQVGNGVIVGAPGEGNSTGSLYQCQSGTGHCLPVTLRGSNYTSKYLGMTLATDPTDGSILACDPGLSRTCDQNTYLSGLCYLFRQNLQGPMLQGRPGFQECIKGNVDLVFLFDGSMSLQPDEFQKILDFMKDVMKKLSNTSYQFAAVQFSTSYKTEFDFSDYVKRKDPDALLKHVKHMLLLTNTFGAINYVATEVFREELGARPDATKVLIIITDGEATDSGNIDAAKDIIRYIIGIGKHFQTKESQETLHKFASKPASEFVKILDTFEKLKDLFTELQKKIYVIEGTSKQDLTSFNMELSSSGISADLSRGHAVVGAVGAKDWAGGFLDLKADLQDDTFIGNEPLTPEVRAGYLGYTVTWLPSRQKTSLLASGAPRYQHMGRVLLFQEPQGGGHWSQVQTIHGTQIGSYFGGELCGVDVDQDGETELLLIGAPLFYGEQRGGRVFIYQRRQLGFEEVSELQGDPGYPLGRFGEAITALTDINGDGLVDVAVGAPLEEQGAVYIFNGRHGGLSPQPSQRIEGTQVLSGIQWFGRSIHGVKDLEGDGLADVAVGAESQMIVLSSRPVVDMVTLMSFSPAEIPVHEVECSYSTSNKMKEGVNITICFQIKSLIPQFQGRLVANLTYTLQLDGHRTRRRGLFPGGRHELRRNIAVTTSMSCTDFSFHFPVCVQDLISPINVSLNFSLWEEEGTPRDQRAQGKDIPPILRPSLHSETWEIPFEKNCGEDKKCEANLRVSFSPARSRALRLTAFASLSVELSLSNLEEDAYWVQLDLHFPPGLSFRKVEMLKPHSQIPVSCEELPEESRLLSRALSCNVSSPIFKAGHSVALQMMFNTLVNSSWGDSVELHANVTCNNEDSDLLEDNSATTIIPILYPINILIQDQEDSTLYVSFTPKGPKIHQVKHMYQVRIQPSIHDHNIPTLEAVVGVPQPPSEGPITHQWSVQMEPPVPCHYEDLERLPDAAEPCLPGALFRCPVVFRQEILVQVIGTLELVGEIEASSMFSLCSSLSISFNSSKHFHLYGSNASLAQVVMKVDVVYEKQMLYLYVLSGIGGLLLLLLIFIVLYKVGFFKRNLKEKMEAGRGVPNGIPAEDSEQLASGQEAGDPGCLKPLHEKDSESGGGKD
Sequence of lymphocyte function associated-1 (LFA-1, CD11a/CD18) (P05107 23-769, chain 2 of 2, further chain): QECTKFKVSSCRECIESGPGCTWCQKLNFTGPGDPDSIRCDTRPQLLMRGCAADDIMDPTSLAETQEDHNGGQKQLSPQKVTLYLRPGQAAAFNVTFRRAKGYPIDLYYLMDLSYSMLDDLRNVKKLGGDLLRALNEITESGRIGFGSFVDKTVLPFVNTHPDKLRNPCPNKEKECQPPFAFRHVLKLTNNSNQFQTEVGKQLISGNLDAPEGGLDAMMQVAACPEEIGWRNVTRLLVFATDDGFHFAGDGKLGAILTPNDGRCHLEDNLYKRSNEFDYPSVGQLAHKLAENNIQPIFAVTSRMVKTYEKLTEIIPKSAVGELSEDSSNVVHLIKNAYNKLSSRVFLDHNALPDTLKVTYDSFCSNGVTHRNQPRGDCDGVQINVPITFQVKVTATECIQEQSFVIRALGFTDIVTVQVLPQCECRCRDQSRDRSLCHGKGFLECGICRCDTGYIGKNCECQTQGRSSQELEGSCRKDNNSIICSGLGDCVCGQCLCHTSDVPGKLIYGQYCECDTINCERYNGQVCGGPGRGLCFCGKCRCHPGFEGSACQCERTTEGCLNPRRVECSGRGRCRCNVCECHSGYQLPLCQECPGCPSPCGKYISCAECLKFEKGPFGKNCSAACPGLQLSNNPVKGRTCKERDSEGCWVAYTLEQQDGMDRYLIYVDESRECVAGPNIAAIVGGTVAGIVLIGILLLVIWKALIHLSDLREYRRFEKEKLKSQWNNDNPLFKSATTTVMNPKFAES

“ICAM-1-HA dimer (from UniProt P05362 28-480) (complex)” came in with a KD of the high affinity component of 8 nM.
